This note sets out measurements from US20170137895, “METHODS OF IDENTIFYING ENZYMES AND MICROORGANISMS” (ZYMONOSTICS APS, published 2017).

Data set [1] addresses T1, Mycobacterium smegmatis topoisomerase I (msTopoI) (Mycobacterium smegmatis, UniProt A0R5D9 A0R5D9:2-936).
T1 sequence: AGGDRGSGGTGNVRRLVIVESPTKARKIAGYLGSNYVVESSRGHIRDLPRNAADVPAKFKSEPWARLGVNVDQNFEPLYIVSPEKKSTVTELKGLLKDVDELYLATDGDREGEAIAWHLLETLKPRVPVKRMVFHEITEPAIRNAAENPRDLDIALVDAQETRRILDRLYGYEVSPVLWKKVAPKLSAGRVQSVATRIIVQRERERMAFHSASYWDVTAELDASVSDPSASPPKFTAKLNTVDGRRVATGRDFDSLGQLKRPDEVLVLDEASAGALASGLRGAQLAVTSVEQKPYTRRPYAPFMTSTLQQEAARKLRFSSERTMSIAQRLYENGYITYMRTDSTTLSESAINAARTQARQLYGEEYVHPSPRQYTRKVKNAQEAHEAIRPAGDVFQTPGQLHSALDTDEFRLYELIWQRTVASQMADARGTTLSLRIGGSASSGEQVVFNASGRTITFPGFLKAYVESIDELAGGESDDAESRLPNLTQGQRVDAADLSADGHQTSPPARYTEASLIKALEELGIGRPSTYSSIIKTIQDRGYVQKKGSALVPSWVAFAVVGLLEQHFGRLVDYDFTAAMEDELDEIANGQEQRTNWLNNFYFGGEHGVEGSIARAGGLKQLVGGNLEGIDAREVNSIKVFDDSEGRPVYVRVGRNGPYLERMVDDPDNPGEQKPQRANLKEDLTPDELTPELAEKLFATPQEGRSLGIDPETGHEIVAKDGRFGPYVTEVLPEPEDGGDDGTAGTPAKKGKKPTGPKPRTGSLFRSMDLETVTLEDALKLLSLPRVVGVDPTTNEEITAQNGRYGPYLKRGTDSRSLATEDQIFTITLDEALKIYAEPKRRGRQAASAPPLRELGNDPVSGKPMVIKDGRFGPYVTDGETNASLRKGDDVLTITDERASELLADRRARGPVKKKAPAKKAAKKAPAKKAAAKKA
The experiment in a line: ligation of SEQ:16 oligo to substrate; binding in 1 mM EDTA, 300 mM NaCl, 37 C, then 5 mM MgCl2; no numeric result given. As for the experimental part:
Prepare a solution containing msTopol as well as 10 mM Tris-HCl (pH 7.5), 1 mM EDTA, and 300 mM NaCl. Add 5 μL to each printed area (see previous section). Incubate for 1 h at 37° C. in humidity chamber. Wash 3×5 minutes in wash buffer 4. To each printed are, add 5 μL of ligation mixture: 2 μM oligonucleotide ([Btn]CAGTGAGCGTCTGGCTGAAGCTTCCGCT; SEQ ID No: 16); 300 mM NaCl; 1 mM Tris-HCl (pH 7.5); 5 mM MgCl₂. Incubate at 37° C. for 1 h in humidity chamber. Wash for 1 min in wash buffer 2, 1 min in wash buffer 3, and 1 min in 96% ethanol. Let the slide air-dry.

For the next data set, the target named is HIV integrase (Human immunodeficiency virus, UniProt P04585 P04585:1148-1435). As to the kind of experiment: integration of LTR into dsDNA SEQ:12/SEQ:13; MES pH 6.2, 200 mM KCl, 10 mM MnCl2, 10 mM DTT, 37 C. The conditions noted are these: tags: His-tag (pTrcHis), E. coli BL21.

As for CAGTGAGCGAGCTTCCGCTTGACATCCCAATAGTTTCTCTTC (ssDNA, 3' amino-C6, immobilised on CodeLink slide) [msTopoI substrate], the binding result in data set [1] is “binds”.

B1: HIV LTR substrate (dsDNA)
DNA 1: TTTAGTCAGTGTGGAAAATCTCTAGCAGT
DNA 2: ACTGCTAGAGATTTTCCACACTGACTAAA
modifications: 5' amino-C6-T on both strands, SEQ:6 strand immobilised
Turning to B1, in the data set with HIV integrase, the binding result is given as “binds”.
